Values quoted from earlier work in article PMC3496018.
pKd: −log10 of the molar value.

Key:
[1] = molecular target: LRP6 (Homo sapiens) (UniProt O75581)
[2] = molecular target: Syndecan-4 (Homo sapiens) (UniProt P31431)
UniProt P31431, sequence (P31431 19-145): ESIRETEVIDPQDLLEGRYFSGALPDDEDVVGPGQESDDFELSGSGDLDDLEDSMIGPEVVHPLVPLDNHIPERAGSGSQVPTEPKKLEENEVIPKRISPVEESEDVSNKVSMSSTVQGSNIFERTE

UniProt O75581, sequence (O75581 20-1370): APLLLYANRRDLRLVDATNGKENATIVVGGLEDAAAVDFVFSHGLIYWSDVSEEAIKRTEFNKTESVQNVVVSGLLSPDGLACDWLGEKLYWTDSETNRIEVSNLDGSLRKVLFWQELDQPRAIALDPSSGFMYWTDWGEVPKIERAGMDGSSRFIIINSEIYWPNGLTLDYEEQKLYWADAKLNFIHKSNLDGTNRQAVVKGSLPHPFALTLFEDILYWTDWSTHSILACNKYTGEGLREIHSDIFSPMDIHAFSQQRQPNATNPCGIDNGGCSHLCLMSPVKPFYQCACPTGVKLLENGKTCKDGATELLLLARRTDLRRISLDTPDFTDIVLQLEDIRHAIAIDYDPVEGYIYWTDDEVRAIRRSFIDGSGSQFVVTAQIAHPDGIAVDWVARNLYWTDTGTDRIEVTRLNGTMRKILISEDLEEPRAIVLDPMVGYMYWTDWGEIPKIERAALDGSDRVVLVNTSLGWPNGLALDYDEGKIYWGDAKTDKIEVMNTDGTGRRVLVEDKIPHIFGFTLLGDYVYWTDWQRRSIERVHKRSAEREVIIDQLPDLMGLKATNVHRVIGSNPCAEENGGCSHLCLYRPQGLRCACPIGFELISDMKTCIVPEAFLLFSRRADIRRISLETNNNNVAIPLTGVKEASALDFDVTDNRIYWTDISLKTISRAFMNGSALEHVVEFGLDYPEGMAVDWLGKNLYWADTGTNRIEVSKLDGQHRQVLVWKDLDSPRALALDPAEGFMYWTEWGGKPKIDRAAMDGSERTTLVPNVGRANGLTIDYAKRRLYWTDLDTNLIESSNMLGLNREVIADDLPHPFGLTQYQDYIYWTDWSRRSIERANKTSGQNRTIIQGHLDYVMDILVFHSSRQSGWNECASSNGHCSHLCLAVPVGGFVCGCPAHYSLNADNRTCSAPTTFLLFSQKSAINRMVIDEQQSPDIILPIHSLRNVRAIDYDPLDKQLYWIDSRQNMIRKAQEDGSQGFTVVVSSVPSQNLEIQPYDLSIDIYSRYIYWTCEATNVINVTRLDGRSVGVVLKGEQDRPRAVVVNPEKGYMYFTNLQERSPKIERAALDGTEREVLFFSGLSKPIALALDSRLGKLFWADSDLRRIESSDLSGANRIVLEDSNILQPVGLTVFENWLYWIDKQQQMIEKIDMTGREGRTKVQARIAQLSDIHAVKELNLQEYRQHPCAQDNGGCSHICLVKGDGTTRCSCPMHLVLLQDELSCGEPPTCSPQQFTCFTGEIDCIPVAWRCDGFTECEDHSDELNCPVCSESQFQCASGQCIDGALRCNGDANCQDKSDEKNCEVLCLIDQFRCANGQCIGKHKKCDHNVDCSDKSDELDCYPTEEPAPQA

pKd [1]	pKd [2]	Substance
8.92	–	RSPO1 (from UniProt Q2MKA7)
–	9.06	RSPO3 (from UniProt Q9BXY4)
